From IntAct's records for PubMed 22878415

B1: SUMO-specific isopeptidase USPL1 (Homo sapiens), Q5W0Q7 (parent)
chain: MMDSPKIGNGLPVIGPGTDIGISSLHMVGYLGKNFDSAKVPSDEYCPACREKGKLKALKTYRISFQESIFLCEDLQCIYPLGSKSLNNLISPDLEECHTPHKPQKRKSLESSYKDSLLLANSKKTRNYIAIDGGKVLNSKHNGEVYDETSSNLPDSSGQQNPIRTADSLERNEILEADTVDMATTKDPATVDVSGTGRPSPQNEGCTSKLEMPLESKCTSFPQALCVQWKNAYALCWLDCILSALVHSEELKNTVTGLCSKEESIFWRLLTKYNQANTLLYTSQLSGVKDGDCKKLTSEIFAEIETCLNEVRDEIFISLQPQLRCTLGDMESPVFAFPLLLKLETHIEKLFLYSFSWDFECSQCGHQYQNRHMKSLVTFTNVIPEWHPLNAAHFGPCNNCNSKSQIRKMVLEKVSPIFMLHFVEGLPQNDLQHYAFHFEGCLYQITSVIQYRANNHFITWILDADGSWLECDDLKGPCSERHKKFEVPASEIHIVIWERKISQVTDKEAACLPLKKTNDQHALSNEKPVSLTSCSVGDAASAETASVTHPKDISVAPRTLSQDTAVTHGDHLLSGPKGLVDNILPLTLEETIQKTASVSQLNSEAFLLENKPVAENTGILKTNTLLSQESLMASSVSAPCNEKLIQDQFVDISFPSQVVNTNMQSVQLNTEDTVNTKSVNNTDATGLIQGVKSVEIEKDAQLKQFLTPKTEQLKPERVTSQVSNLKKKETTADSQTTTSKSLQNQSLKENQKKPFVGSWVKGLISRGASFMPLCVSAHNRNTITDLQPSVKGVNNFGGFKTKGINQKASHVSKKARKSASKPPPISKPPAGPPSSNGTAAHPHAHAASEVLEKSGSTSCGAQLNHSSYGNGISSANHEDLVEGQIHKLRLKLRKKLKAEKKKLAALMSSPQSRTVRSENLEQVPQDGSPNDCESIEDLLNELPYPIDIASESACTTVPGVSLYSSQTHEEILAELLSPTPVSTELSENGEGDFRYLGMGDSHIPPPVPSEFNDVSQNTHLRQDHNYCSPTKKNPCEVQPDSLTNNACVRTLNLESPMKTDIFDEFFSSSALNALANDTLDLPHFDEYLFENY

Variants of: B1
Details: with sumo3_human SUMO3, P55854
Chain of sumo3_human SUMO3, P55854 (P55854 whole entry): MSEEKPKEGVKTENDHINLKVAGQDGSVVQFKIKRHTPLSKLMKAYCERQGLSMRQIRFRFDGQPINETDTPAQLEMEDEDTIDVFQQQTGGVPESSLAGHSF

Variant	effect of a mutation on the interaction
V495A	decreasing interaction
I494A	decreasing interaction

Variants of: B1
Details: with sumo3_human SUMO3, P55854
Remark: another data set of the same source

Variant	effect of a mutation on the interaction
V495A	disrupting interaction
I494V	disrupting interaction

Variants of: B1
Details: with sumo3_human SUMO3, P55854
Remark: another data set of the same source

Variant	effect of a mutation on the interaction
H421A	decreasing interaction

Variants of: B1
Details: with sumo3_human SUMO3, P55854
Remark: another data set of the same source

Variant	effect of a mutation on the interaction
W237F	decreasing interaction

Variants of: B1
Details: with sumo3_human SUMO3, P55854
Remark: another data set of the same source

Variant	effect of a mutation on the interaction
W237F	disrupting interaction

Variants of: B1
Details: with sumo3_human SUMO3, P55854
Remark: another data set of the same source

Variant	effect of a mutation on the interaction
L341A	decreasing interaction
L340A	decreasing interaction

Variants of: B1
Details: with sumo3_human SUMO3, P55854
Remark: another data set of the same source

Variant	effect of a mutation on the interaction
L341A	disrupting interaction
L340A	disrupting interaction

Variants of: B1
Details: with sumo3_human SUMO3, P55854
Remark: another data set of the same source

Variant	effect of a mutation on the interaction
E331A	decreasing interaction

Variants of: B1
Details: with sumo3_human SUMO3, P55854
Remark: another data set of the same source

Variant	effect of a mutation on the interaction
W229L	decreasing interaction

Variants of: B1
Details: with sumo3_human SUMO3, P55854
Remark: another data set of the same source

Variant	effect of a mutation on the interaction
W229L	disrupting interaction
